Paper doi:10.1101/303123 (bioRxiv, 2018)

T1: XcpX (29-313), soluble form of the minor pseudopilin XcpX (P. aeruginosa, UniProt Q00518 29-313)
T1 sequence (looked up): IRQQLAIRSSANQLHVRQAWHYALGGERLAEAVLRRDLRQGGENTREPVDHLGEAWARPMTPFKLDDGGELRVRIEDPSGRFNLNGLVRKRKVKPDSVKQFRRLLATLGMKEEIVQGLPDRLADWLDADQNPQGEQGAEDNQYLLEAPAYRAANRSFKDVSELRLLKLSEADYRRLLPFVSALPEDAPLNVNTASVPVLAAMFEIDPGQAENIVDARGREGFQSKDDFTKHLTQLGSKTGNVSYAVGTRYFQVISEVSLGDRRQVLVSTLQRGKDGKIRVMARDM

T2: XcpVW binary complex (XcpV (28-129) with XcpW (28-203)) (P. aeruginosa, UniProt Q00516 28-129; Q00517 28-203)
T2 sequence (looked up) 1: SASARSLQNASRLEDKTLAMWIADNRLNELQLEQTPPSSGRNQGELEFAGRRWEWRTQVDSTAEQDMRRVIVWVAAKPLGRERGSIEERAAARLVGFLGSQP
T2 sequence (looked up) 2: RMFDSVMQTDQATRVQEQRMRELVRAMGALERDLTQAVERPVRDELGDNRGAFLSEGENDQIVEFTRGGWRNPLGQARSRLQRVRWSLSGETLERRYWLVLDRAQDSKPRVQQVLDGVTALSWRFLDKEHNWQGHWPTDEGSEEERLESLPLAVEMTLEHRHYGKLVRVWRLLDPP

B1: XcpV (28-129), soluble form of the minor pseudopilin XcpV (domain or fragment, P. aeruginosa, UniProt Q00516 28-129, looked up)
chain: T2 sequence (looked up) 1
B2: XcpU (29-172), soluble form of the minor pseudopilin XcpU (domain or fragment, P. aeruginosa, UniProt Q00515 29-172, looked up)
chain: STGFASTSRELDSEAERLAGLIGVLTDEAVLDNREYGLRLERDAYQVLRYDEAKARWLPVARDSHRLPEWAELTFELDGQPLVLAGSKGEKEQKKGTDQPQLLILSSGELSPFRLRLAERGPEGRALSLSSDGFRLPRVEVARR

Key:
[1] = molecular target: T1, XcpX (29-313), soluble form of the …; assay: crystal structure
[2] = molecular target: T2, XcpVW binary complex (XcpV (28-129) …); assay: SEC + AUC

Row | Binder | binding result [1] | binding result [2]
1 | B1 | binds | 
2 | B2 |  | binds
